The nanobody polyreactivity screen of Harvey et al. (2022)

Test: yeast display, Sf9 membrane polyspecificity reagent, FACS + sequencing; frameworks hold sequencing errors
Outline: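 Galactose induction of a Saccharomyces cerevisiae BJ5465 synthetic nanobody display library ran 36–48 hours. The cells were then stained for 1 hour at 4 °C with 10% biotinylated, detergent-solubilized Sf9 membrane reagent, pulled down on streptavidin microbeads and FACS-sorted into low and high (top ~1%) gates on expression and reagent-binding fluorescence. Labels for polyreactivity follow the gate of origin.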

Sequence	polyreactivity (PSR sort gate)
QVQLVESGGGLVQAGVSLRLSCAASGTIFYTYTMGWYRQAPRKERELVATIRSTGSTDYADSVKGRFTISRDNAMNTVYLQMNSLKREDTAVYYCNADRFGDYDYWGQGTQVTVSS	low polyreactivity
QVQLVESGGGLVQAGGSLRLSCAASGSTLGRYAMGWYRQAPGKERELVASITWSDDSTYYADSVKGRFTISRDNAKNTVYLQMNSLKPEDTAVYYCNAPPGTFQWQGHSDYWGQGTQVTVSS	low polyreactivity
QVQLVESGGGLVQAGGSLRLSCAASGIIFAYYAMGWYRQAPGKERELVAAIDYSGASTYYADSVKGRFTISRDNAKNTVYLQMNSLKPEDTAVYYCAKYQYDYYTYDYWGQGTQVTVSS	low polyreactivity
QVQLVESGGGLVQAGGSLRLSCAASGRTFVGYPMGWCRQAPGKERELVAAIDLSDGSTSYADSVKGRFTISRDHAKNTVYLQMISLTPEHTAVYYCAKTSANVYAGAHDSWGQGTQVTVSS	low polyreactivity
QVQLVESGGGLVQAGGSLRLSCAASGIISIFIVMGGYRQAPGKERELVASITGRGGSTFYADSVKGRFTISRDNAKNTVYLQMNSLKPEDTAVYYCATDTGYTYPVTGLYDYWGQGTQVTVSS	low polyreactivity
QVQLVESGAGLVQAGGSLRLSCAASGFTFPVYAMGWNRQAPGKERELVAAISWSGGGTYYADSVKGRFTISRDIAKNTVYLQMNSLNPEDTAVHYCAARWYYYPLMYDYWGQGTQVTVSS	low polyreactivity
QVQLVESGGGLVQAGCSLRLSCAASGRIFDFYAMGWYRHAPGKERELVAAISWDGSDTYYADSVKGRFTISRDNAKNTVYLQMNSLKPEDTAVYYCAADYYSPSGHEYNYWGQGTQVTVSS	high polyreactivity
QVQLVESGAGIVQAGGSLRLSCAASGNSYGYAMGWYRQAPGKERELVAAITSGASDTYYADSVKGRFTISRDNAKKTVYLQMNSLKPEDTAVYYCAAVDYTNRYDPYDYWGQGTQVTVSS	low polyreactivity
QDQLEESGGGLVQAGGSLRLSCAASGNIFPRNAMGWYRQAAGKERELVAAISASGDNTYYADSVKGRFTISRDNAKNTVYLQMNSLKPEDTAVYYCSAGTFYESIQPYESVAYYYWGQGTQVTVSS	low polyreactivity
QVQLVESGGGLDQAGGSLRLSCAASGFIFRYYAMGWYRQAPGKERELVAAISRNGGSTYYADSVKGRFTISRDIAKNTVYLQMNSLKPEDTAVYYCAALTGRERYDYWGQGTQVTVSS	high polyreactivity
QVQLVESGGGLVQAGGSLRLSCAASGFTLRLYVMGWYRQAPGKERELVAAITSSGGSTYYADSVKGRFTISRDIAKNTVYLQMNSLKPEDTAVYYCAAVNRKSQLYGYWGQGTQVTVSS	high polyreactivity
QVQLVESGGGLVQAGGSLRLSCAASGSIFARNAMGWYRQAPGTERELVASITWSGASTYYADSVKGRFTMSRDNATNTVSLQLNSLKPDDTAVYYCAATAQKLSLDYSSYEYWGQGTQVTVSS	low polyreactivity
QVQLVESGGGLVQAGGSLRLSCAASGFIFYNYDMGWYRQAPGKERELVAAITGGGSTNYADSVKGRFTISRDNAKNTVYLKMNSLKPEDTAVYYCAAEEGPPCYRYDYWGQGTQVTVSS	low polyreactivity
QVQLVESGGGLVQAGGSLRLSCAASGRTFDVNAMGWYRQAPGKERELVAAITWDGGSTYYADSVKGRFTISRDNAKNTVYLQMNSLKPEDTAVYYCAADFIQGAWWYVTYRYTYEYWGQGTQVTVSS	low polyreactivity
QVQLVESGGGLVQAGGSLRLSCAASGRIFGVYAMGWYRQAPGKERELVADISWSGSGTYADSVKGRFTISRDNAKNTVYLQMNSLKPEDTAVYYCNVDPAQIHAGYVGYDYWGQGTQVTVSS	low polyreactivity
QVQLVESGGGLVQAGGSLRLSCAASGSIFGGNAMGCYRQAPGKERELVAAITDGGNTNYADSVKGRFTISRDNAKNTVYLQMNSLKPEDTAVYYCAARMPGTYGGRYGYDYWGQGTQVTVSS	low polyreactivity
QVQLVESGGGLVQAGGSLRLSCAASGLIFWGYTMGWYRQAPGKERELVAAISRSGGRTYYADSVKGRFTISRDNAKNTVYLQMNSLKPEDTAVYYCAARYYYWGQGTQVTVSS	high polyreactivity
QVQLVESGGGLVQAGGSLRLSCAASGRIFRTYAMGWSRQAPGKERELVAAISGSGGRTYYADSVKGRFTISRDNAKNTVYLQMNSLKPEDTAVYYCAKYVSIVRYGSTTNYDYWGQGTQVTVSS	high polyreactivity
QVQLVESGGGLVQAGGSLRLSCAASGRIFYLYTMGWYRQAPGKEREFSTYYADSVKGRFTISRDNAKNTVYLQMNCLKPEDTAVYYCAAADHPPVWYGYWGQGTQVTVSS	low polyreactivity
QVQLVESGGGLVQAGGSLRLSCAASGRIFQDNAMGWYRQTPGKERELVAAISRRGGSTYYADSVKGRFTISRDNAKYTVYLQMNSMKPEDTAVYYCAAKWSVEEDYWGQGTQVTVSS	high polyreactivity
QVQFVESGGGLVQAGGSLRLSCAASGSTFQGYAMGWYRQAPGKERELVAAISRSGGRTYYADSVKGRFTISRDNAKNTVYLQMNSLKPEDTAVYYCAAEGHELTEGDSWGQGTQVTVSS	low polyreactivity
QVQLVESGGGLVQAGGSLRLRCAASGFIFVAYAMGWYIQAPGKERELVAAISWSGGSTYADSVKGRFTISRHNAKNTVYLQMNSLKPEDTAVYYCDARTSPIKTNNWYSQRYDSWGQGTQVTVSS	low polyreactivity

Sequence	polyreactivity (PSR sort gate)
QVQLVESGGGLVQAGGSLRLSCAASGRTFPFYAMGWYRQAPGKERELVAAINSGGITNYADSVKGRFTISRDNAKNTVYLQMNSLKPEDTAVYYCAAKTAFYRERGYWGQGTQVTVSS	low polyreactivity
QVQLVESGGGLVQAGGSHRFSCAASGFTVWEYAMGLYRQAPGKERELVAAISRGTSTYYADSVKGRFTISRDNAKNTVYLQMNSLKPEDTAVYYCAAAPSYYPARHGYWGQGSQVTVSS	low polyreactivity
QFQLVESGGGLVQAGGSLRLSCAASGFTFIKYAMGWYRQAPGKEREFVATISWNGGNTYYADSVKGRFTISRDNAKNTVYLQMNSLKPEDTAVYYCAARRRAFGSTYNYWGQGTQVTVSS	high polyreactivity
QVLLVESGGGIVQAGGSLRLSCSASGIIFPCYAMGWYRQAPGKERELLAAISSSGSSTYYADSVMGRFTITRDNAKNTVYLQMNSLKPEDTAVYYCAAVRYGMRRMDYWGQGTQVTVSS	high polyreactivity
QVQLVESGGGLVQAGGSLRLSCAASGITFPHYAMGWYRQAPGKERELVAAISSSGGRTYYADSVKGRFTISRDNAKNTVYFQMNSLKPEDTAVYYCNKLRYPLLPPKYYYWGQGTQVTVSS	high polyreactivity
QVQLVESGGGLVQAGGSLRLSCAASGRTFYSKAMGWYRQAPGKERELVAAISSSGSSTSYADSVKGRFTMSRDNAKNTVYLQMNSLKPEDTAVYYCAARTKRRANRDYWGQGTQVTVSS	high polyreactivity
QVQLVESGGGLVQAGGSLRLSCAAYGFTFSWYAMGWYRQAPGKERELVAAISSSGGSTYYADSVKGRFTISRDNAKNTVYLQMNSLKPEDTAVYYCNAYRSASVVVGYDYWGQGTQVTVSS	high polyreactivity
QVQLVESGGGLVQAGGSLRLSCAPSGSIFVVNAMGWFRQAPGKEREFVAAITFGGGTTYYADSVKGRITISRDNAKNTVYLQMYSLKPEDTEVYYCNTRTRGYSSYVGGYNYWGQGTQVTVSS	low polyreactivity
QVQLVESGGGLVQAGGSLRLSCAASGITFRWNAMGWYRPAPGKERELVAAITTRGGGTYYADSVKGRFTISRDNAKNTVYLQMNSMKPEDTAVYYCAAKKSRYPYNYWGQGTQVTVSS	high polyreactivity
QVQLVESGGGLVQAGGSLRLSCAASGFTFRTYAMGWYRQAPGKERELVAAISRSGGSTDYADSVKGRFTISRDTAKNTVYLQMNSLKPEHTAVYYCNAVRRAEYDYWGQGTQVTVSS	high polyreactivity
QVQLVESGGGLVQAGGSLRLSCAASGFTLARNTMGWYRQAPGKQRELVAAISGGGSTNYADSVKGRFTISRDNAKNTVYLLMYSLKPEHTAVYYCNADSNSDNNDYDYWGQGSQVTVSS	low polyreactivity
QVQLVESGGGLVQAGGSLRLSCAASGRTFYPYAMGWYRQAPGKERELVAAIRRSDGSTYYADSVKGRFTISRDNAKNTVYLQMNSLKPEDTAVYYFAAGQGSRNQYYYWGHGTQVTVSS	high polyreactivity
QVQLVESGGGLVQAGGSLRLICAASGSTFVRNAMGWYRQSPGKEREFVAAIRRSGGSTYYADSVKGRFTISRDNPKNTVYLQINSLKPEDTAVYDCAARNYYTYDYWGQGTQVTVSS	high polyreactivity
QVQLVESWGGLVQAGGSLRLSCAASGSIFSYYGMGRYRQARGKERELVAAITRSTGSTYYADSVKGRFTISRDNAKNTVYLQMNSLKPEDTAVYYCATDYVVLWEFDYWGQGTQVTVSS	low polyreactivity
QVQLVESGAGLVQDGGSLRLICAASGRTFTPYAMGRYRQAPGKEMEFVAAISIVGRTKYADSVKGRFTISRDNAKNTVYLQMNSLKPEDTEVYYCNAQDSRDRKFYWGYTRGHWGQGTQVTVSS	low polyreactivity
QVQLVESGGGLVKAGGSLRLSCAASGRIFVFNAMGWYRQAPGKERELVAAITSAGSTYYADSVKGRFTISRDNAKNTVYLQMNSLIPEDTAVYYCAAGSRRYRDDYWGQGTQVNVSS	low polyreactivity
QVQLVESGGGLVQAGGSLRLSCAASGFIWSYVMGWYRQAPGKESQLVAAISRSCGRTYYADSVKGRFTISRDNAKNTVYLQMNSLKPEDTAVYYCAKDGGWSRLHYNYWGQGNQVTVSS	high polyreactivity
QVQLVESGGGLVQAGGSLRLSCAASGRTFSVNAMGWYRKAPGKERELVAAISWSTGSTYYADSVKGRFTISRDNAKNTVSLQMNSLKPEDTAVYYCAKLYEYRRSRYRTYGYWGQGTQVTVSS	high polyreactivity
QVQVVDSGGGLVQAGGSLSLSCAASGSIFIYYAMGWYRQAPGKERELVAVINDDGSTNYADSVKGRFTISRDNAMNTVYLQMNSLKPEDTAVYYCNTTIGTYYSPSDYWGQGTQVTVSS	low polyreactivity
QVQLVESGGGLVQAGGSLRLSCAASGRTFNDYTMGWYRQAPGKERELVAAISSSGVRTYYADSVKGRFTISRDNAKNTVYLQMNSLKPEDTAVYYAKRAGYDRRWTYDYWGQGTQVTVSS	high polyreactivity
QVQLVESGGGLVQAGGSLRLSCAASGRTLHAYTMGWYRQAPGSERELVAAITRGGGNTYYADSVKGRFTISRDNAKNTVYLQLNSLKPEDTAVYYCNAAVSGYLSYEYDYWGQGTQVTVSS	low polyreactivity
